Experimental data reported in patent US20260250718.

What was measured:
Assay in all cases: cell_activity
[1] = test system: T1, Cyin16 (metagenome (uncultured organism)); settings: EGFP+ 293T cells at day 20
T1 sequence: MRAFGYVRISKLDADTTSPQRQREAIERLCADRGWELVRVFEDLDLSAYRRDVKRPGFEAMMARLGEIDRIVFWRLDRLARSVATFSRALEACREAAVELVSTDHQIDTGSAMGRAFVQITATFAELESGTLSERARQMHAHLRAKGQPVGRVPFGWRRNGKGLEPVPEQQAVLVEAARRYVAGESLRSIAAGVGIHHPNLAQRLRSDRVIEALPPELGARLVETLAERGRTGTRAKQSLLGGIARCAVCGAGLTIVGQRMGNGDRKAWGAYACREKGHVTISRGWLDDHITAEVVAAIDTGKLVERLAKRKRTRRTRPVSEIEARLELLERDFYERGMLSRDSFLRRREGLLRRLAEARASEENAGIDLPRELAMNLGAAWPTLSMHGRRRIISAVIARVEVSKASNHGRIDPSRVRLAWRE

[2] = test system: T2, Cyin14 (metagenome (uncultured organism))
T2 sequence: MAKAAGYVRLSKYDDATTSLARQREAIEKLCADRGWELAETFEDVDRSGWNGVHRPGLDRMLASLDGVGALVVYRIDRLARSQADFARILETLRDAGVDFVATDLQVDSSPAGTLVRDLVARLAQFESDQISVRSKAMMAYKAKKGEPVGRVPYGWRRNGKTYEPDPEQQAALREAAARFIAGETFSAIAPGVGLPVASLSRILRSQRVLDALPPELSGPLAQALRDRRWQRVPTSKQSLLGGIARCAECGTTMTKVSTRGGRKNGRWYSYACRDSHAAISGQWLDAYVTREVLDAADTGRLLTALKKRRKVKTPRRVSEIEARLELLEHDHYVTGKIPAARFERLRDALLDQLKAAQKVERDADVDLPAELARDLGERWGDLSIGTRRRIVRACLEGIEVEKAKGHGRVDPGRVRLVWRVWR

[3] = test system: T3, Cyin15 (metagenome (uncultured organism)); settings: EGFP+ 293T cells at day 20
T3 sequence: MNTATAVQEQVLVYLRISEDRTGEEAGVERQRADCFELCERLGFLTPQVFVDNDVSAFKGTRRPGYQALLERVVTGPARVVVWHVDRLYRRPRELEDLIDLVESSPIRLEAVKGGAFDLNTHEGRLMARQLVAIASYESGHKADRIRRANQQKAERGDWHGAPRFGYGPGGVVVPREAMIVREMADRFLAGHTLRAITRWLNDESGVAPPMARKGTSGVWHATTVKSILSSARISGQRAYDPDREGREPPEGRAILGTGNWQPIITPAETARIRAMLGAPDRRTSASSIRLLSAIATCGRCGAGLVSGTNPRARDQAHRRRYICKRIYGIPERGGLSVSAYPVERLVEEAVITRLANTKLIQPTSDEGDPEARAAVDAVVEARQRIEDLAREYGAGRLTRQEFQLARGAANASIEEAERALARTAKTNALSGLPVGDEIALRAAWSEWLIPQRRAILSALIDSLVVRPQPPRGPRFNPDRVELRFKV

[4] = test system: T4, Cyin11 (metagenome (uncultured organism)); settings: EGFP+ 293T cells at day 20
T4 sequence: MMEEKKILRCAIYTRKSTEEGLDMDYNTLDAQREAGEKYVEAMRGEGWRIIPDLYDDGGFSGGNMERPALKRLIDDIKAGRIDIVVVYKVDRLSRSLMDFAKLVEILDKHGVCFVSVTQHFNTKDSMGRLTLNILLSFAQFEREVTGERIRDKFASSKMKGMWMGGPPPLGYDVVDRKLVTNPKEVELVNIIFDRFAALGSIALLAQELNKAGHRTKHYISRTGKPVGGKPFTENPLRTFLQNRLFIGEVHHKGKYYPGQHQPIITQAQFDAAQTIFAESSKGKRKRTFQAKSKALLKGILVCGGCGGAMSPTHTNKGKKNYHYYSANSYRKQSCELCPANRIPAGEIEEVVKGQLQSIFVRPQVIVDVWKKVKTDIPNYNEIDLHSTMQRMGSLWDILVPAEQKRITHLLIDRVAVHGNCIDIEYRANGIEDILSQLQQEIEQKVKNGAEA

[5] = test system: T5, phiC31 integrase (Streptomyces phage phiC31?); settings: positive control; EGFP+ 293T cells at day 20
T5 sequence: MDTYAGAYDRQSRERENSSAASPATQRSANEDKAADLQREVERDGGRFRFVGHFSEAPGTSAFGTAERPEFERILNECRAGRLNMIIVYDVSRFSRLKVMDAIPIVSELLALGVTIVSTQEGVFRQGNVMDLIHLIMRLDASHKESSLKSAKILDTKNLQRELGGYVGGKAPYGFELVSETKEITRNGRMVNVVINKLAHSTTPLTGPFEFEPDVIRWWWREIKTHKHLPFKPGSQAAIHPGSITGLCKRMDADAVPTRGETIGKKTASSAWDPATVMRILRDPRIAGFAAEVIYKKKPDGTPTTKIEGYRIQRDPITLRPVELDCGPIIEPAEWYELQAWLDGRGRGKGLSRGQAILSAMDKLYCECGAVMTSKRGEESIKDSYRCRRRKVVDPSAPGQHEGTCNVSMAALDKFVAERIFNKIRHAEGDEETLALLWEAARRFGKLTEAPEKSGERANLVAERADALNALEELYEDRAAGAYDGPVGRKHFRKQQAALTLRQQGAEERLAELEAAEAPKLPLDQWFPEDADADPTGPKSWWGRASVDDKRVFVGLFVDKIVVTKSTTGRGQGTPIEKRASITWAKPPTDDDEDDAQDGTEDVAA

[6] = test system: T6, Cyin12 (metagenome (uncultured organism)); settings: EGFP+ 293T cells at day 20
T6 sequence: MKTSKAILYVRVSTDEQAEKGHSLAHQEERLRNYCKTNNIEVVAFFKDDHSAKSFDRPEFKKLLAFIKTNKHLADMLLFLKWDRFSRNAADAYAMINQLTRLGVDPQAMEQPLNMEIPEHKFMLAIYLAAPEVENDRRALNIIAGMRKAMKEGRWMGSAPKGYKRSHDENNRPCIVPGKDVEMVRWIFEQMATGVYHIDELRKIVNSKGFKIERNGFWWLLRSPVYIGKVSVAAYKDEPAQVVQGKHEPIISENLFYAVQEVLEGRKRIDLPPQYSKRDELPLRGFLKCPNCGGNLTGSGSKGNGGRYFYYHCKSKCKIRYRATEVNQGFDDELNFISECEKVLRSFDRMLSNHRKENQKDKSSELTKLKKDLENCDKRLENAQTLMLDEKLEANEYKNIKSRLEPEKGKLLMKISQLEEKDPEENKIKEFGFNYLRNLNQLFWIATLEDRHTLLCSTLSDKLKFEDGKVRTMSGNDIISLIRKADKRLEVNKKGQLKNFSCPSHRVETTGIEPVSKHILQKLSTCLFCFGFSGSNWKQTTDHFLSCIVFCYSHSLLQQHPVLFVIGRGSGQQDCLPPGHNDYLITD

TCGATTCGGTTCGCCGCGCCGCTACCGGATCGCGCCGAAGAGATGACTGATCTCGAGGCTCCGGCCCGAAGGCCTCCTCAACGGCTTCGAGGATCGATTCGGCGCGCACGGGTGCCTCTCTCCGCGCGCCAGCGCGAGGCAATCGAGCGCCTCTGTGCTGACCGCGGGTGGGAGCTCGTTCGAGTCTTCGAGGATCTCGACCTCTCGGCCTACCGCCGCGACGTGAAGCGGCCGGGCTTCGAGGCCATGATGG (double strand) [16-P1]
activity [1]: 1.69%

ACGTATACTGGCGTACACTGATCAAGGAGGGGCCATGGCCAAGGCAGCCGGGTACGTCAGGCTCAGCAAGTACGACGACGCCACCACTAGTCTCGCCCGCCAGCGTGAGGCCATCGAAAAGCTGTGCCCGGCTCTGGGATCGCCTCACCGAGATCGAGCCGCACGCGTTCGAACCGGTGGAGACGAGGTGAAGCCGAACAGGGTCGCGCTCTATCTCCAAGACAAGCACCCCCTCCGCGAGGGGATGAAGTA (double strand) [14-B1]
activity ([2]; EGFP+ 293T cells at day 20): 1.38%

GGGTATTCGGCCTCTCTCCCCGTCACGTCCGCGACGTCTTCGTCGCCGGGGAGCTGGTGGTGGAAGACCGGCGGCCAACGCGGGTCCAGCCGGAGGACATCGTCTGGGACGCCGCCGCGGAGGCCGCGCCGACCGCGGCTGGGAGCTCGCCGAGACCTTCGAGGACGTGGACCGCTCCGGGTGGAACGGGGTTCACCGGCCCGGGCTCGACCGGATGCTGGCCTCACTCGACGGCGTTGGCGCGCTGGTCGT (double strand) [14-P1]
activity ([2]; EGFP+ 293T cells at day 20, donor plasmid integration into genome, significantly above no-integrase control): 10.1%

AGCGCCACTTCGTGTGGGGCGTGTTGGAGGATCTCCAAAGCCTCTTCGGCTGAGCCCGCCTCCGTGACGTCGGCGCCCTCCACGCAGTTCTGCAGGACCTGGATGAGGCCCTTTCGAACCAGCGTGTGTACGTGGAGCGGAAGGGGCCGATTATTGACTGAACCGTAGACCAGCCCTATGCTGCTATGGCCGACCAGAGGAGGGGGAGCCATGCGCGCCTTCGGCTACGTCCGGATCTCCAAGCTCGACGCCG (double strand) [16-P2]
activity [1]: 2.33%

GGAATCAGCCGGGGCTTCTCGGCCGTCAACATCCGCAAGTTCGTGGTGCGAGCATCGCGCCTGTCGGAGCTGGTCGATCTGCAGAGCCTCACGCCGTCCGCGGCCCTGTTCCTCGAGGCATCCATCCGGGACGACGGCCCCGGAGAGCGATCCCGCTGTGAGCAGGCCGCCCTCGGCAATGTCGAGCGCCGCATGCTGGCCGACCACCTGTTCGATCTCGCTTGCGAGCACCGGCTTCACCGCTGGGTCCGCGCT (double strand) [15-B2]
activity [3]: 1.12%

ATCCAATGTGCAAGGCCATTTAGATGTCGCTTTGGCAAACACACTCGGCCGTTTGTGTCATGAATTATAATATCAGACATGCTACTGAAAAAGATTTATCTGCACTTTGCGATATTGAACATGAATCTTTATTTCCCAAACCAAAAAATGCGTTACCGTTCCAGCGCGTGCCGGTAATTGCAAATGCGACACCAGATAGGCTTTTATATTTCAGCCCCTGATATTCATAGCCGTCAGCCAGCACATACACAT (double strand) [11-B1]
activity [4]: 1.78%

TGCCGGCCAGTGCCGTCTCGGAGGTGGTGAACCAGGTTTCGGATGAAGTCGTCGGCCTCGGTCCCATCGAGCGATTGCTCAAGGACCCGGAGATCAGCGAGGTGATGGTGAACGGGGCCGACGACGTGGTCGTCGACCAGGAGGACCTTCACGAGGCCGCCTCTCGCAACGGGAACCGGGCCACGACCCGCGTGCCCTTCCCCGGCCGCGGATAGACGTAGAGCCTGCCCCCAGCCTCCCGCACGCGGCGGCG (double strand) [16-B2]
activity ([1]; significantly above no-integrase control): 4.23%

GTCGACGATGTAGGTCACGGTCTCGAAGCCGCGGTGCGGGTGCCAGGGCGTGCCCTTGGGCTCCCCGGGCGCGTACTCCACCTCACCCATCTGGTCCATCATGATGAACGGGTCGAGGTGGCGGTAGTTGATCCCGGCGAACGCGCGGCGCACCGGGAAGCCCTCGCCCTCGAAACCGCTGGGCGCGGTGGTCACGGTGAGCACGGGACGTGCGACGGCGTCGGCGGGTGCGGATACGCGGGGCAGCGTCAGCGGGTTCTCGACGGTCACGGCGGGCATGTCGAC (double strand) [phiC31 attB]
activity [5]: 8.87%

TTGTCTTCCTCTGCAGTCAATTGTTTTGGATCATCTTTTTTGGGAACAACAAGATTACTTTGAACATTATCTCTATTTACACCGGTTGAAACCTGGTCCTTCTTATTAAGAACTTCTGTATTTGTCAAAGCAATTCTTTATGTCAGAGTGAGTACAGACGAACAGGCTGAAAAAGGTCACAGTCTGGCTCATCAGGAAGAACGACTTCGTAATTATTGCAAAACAAATAATATCGAGGTCGTTGCTTTTTTTA (double strand) [12-P1]
activity [6]: 1.53%
